The source of these data is article PMC8847575, “HSL1 and BAM1/2 impact epidermal cell development by sensing distinct signaling peptides” (Nature Communications, 2022).

Square brackets hold non-standard residues; d marks the D form. Peptide text beside a SMILES is read from it. Hyp = O=C(O)[C@@H]1C[C@@H](O)CN1

The term Kd denotes the constant that tells how readily two partners part at equilibrium. Low values mean a tighter complex, high ones a looser complex.

In one test the target is T1, HSL1 ectodomain (Arabidopsis thaliana, UniProt Q9SGP2).
T1 construct: HSL1 (residues 17-618, AT1G28440); azurocidin or Drosophila BIP signal peptide (secretion signal) (N); made in house; host or cells: Trichoplusia ni Tnao38 insect cells (baculovirus)
T1 sequence (Q9SGP2 17-618): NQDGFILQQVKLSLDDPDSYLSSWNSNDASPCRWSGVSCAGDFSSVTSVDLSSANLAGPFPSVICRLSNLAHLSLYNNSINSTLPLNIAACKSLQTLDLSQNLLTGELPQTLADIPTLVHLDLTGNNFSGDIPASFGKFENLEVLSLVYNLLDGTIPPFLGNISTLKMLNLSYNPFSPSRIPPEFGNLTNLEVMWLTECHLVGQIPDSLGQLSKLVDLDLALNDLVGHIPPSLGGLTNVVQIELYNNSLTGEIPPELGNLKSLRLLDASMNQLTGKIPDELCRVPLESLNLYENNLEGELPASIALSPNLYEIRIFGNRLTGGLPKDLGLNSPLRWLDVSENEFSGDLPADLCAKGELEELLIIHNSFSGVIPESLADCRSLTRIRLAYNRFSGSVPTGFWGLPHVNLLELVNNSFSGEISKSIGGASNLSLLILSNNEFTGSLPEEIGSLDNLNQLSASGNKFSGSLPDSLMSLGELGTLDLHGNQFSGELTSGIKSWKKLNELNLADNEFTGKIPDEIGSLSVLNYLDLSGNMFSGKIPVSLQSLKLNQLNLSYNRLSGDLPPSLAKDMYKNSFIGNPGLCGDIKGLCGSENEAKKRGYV
Briefly: GCI binding kinetics, peptide vs immobilised HSL1. The note with it: HSL1 on surface, peptide as analyte, 25 °C, pH 5, one-to-one binding model, read-out: ka association rate constant, peptide vs HSL1 (GCI). The method, then: 25 μM of HSL1 were biotinylated with the biotin ligase BirA[60] (2 μM) for 1 h at 30 °C, in a volume of 200 μl. The buffer used in the reaction was: 25 mM Tris pH 8, 150 mM NaCl, 5 mM MgCl2, 2 mM 2-Mercaptoethanol, 0.15 mM Biotin, 2 mM ATP. Biotinylated proteins were purified by size-exclusion chromatography in 20 mM citric acid pH5, 150 mM NaCl and subsequently used in GCI experiments.
GCI experiments were performed with the Creoptix WAVE system (Creoptix AG, Switzerland) using 4PCP WAVE chips (thin quasiplanar polycarboxylate surface; Creoptix, Switzerland). Chips were first conditioned with borate buffer (100 mM sodium borate pH 9.0, 1 M NaCl; Xantec, Germany). Chips were activated with 1:1 mix of 400 mM N-(3-dimethylaminopropyl)-N′-ethylcarbodiimide hydrochloride and 100 mM N-hydroxysuccinimide (Xantec, Germany). Streptavidin (50 µg/ml; Sigma, Germany) in 10 mM sodium acetate pH 5.0 (Sigma, Germany) was immobilized on the chip surface until saturation was reached, followed by passivation of the surface with BSA (50 µg/ml; Sigma, Germany) in 10 mM sodium acetate pH5.0, and a final quenching step with 1 M ethanolamine pH 8.0 (Xantec, Germany). Then, biotinylated HSL1 (ligand) (80–100 μg/ml) was captured on the streptavidin surface until the desired density was reached. Normal kinetic analysis were performed to measure the binding of IDL peptides (analyte) to HSL1. Experiments were performed at 25 °C with a 1:2 dilution series from a maximum concentration of 5–50 μM peptide, in 20 mM citrate pH 5, 250 mM NaCl, 0.005% Tween-20 v/v. To analyze the interaction kinetics of the co-receptor SERK1, 2 µM of the protein was used as a higher dilution with running buffer containing 5 µM of the IDL peptides being tested. Blank injections were used for double referencing and a dimethylsulfoxide (DMSO) calibration curve for bulk correction. Analysis and correction of the obtained data were performed using the Creoptix WAVE control software (correction applied: X and Y offset; DMSO calibration; double referencing). One-to-one binding model was used for both experiments.

For test [1], the target named is T2, BAM1 (BARELY ANY MERISTEM 1) ectodomain (Arabidopsis, UniProt O49545 20-637).
T2 construct: BAM1 LRR receptor kinase ectodomain, Arabidopsis, residues 20-637, AT5G65700; codon optimised; secreted with an azurocidin or Drosophila BiP signal peptide; also called BAM1 extracellular domain; BAM1 LRR ectodomain; source: Trichoplusia ni Tnao38 cells (baculovirus), secreted, purified (Ni2+, Strep-Tactin, TEV cleavage, second Ni2+, SEC)
T2 sequence (looked up): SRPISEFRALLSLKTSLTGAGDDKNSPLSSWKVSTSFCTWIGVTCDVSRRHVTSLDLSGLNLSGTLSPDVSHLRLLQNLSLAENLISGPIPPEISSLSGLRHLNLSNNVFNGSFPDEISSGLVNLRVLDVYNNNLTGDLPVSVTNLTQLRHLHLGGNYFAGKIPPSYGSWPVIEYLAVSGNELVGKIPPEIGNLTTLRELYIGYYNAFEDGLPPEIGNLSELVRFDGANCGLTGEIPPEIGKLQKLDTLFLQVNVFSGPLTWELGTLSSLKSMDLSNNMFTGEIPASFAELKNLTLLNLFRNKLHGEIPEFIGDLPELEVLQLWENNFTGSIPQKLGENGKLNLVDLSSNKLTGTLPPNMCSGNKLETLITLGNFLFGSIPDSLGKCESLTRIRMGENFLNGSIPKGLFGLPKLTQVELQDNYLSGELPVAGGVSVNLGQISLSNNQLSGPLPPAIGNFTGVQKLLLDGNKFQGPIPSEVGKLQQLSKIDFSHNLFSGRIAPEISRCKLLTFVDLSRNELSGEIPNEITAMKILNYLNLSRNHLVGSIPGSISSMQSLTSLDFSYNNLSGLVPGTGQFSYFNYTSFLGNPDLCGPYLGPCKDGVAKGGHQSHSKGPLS
Briefly: ITC; peptide (75 to 600 µM) injected into 10 to 30 µM HSL1 or BAM1 ectodomain in the cell; 25 °C; 20 mM sodium citrate pH 5.0, 150 mM NaCl; N fitted to 1. The note with it: both partners purified. On the technique in general: In ITC the heat of successive injections is recorded.

Test [2] has as its target T3, BAM1 (BARELY ANY MERISTEM 1) ectodomain (Arabidopsis, UniProt O49545 20-637).
T3 chain: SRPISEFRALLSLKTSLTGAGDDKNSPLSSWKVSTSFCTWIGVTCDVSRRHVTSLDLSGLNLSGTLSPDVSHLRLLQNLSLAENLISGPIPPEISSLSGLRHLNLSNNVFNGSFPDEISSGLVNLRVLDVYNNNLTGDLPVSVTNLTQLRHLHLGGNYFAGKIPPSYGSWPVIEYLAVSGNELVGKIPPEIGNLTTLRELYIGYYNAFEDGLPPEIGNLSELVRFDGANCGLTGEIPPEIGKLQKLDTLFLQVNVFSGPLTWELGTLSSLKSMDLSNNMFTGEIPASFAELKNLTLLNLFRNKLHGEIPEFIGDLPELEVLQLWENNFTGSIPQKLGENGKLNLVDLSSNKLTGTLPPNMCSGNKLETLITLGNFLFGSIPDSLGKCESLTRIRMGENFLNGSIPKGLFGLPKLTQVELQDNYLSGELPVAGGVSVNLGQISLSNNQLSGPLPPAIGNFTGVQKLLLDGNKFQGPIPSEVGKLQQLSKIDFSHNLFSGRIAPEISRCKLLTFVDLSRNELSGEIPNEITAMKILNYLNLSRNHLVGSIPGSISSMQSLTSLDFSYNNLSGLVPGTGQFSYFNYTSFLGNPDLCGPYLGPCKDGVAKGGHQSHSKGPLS
Put plainly: ITC.

As to `CC(C)[C@H](NC(=O)[C@@H]1CCCN1)C(=O)N1CCC[C@H]1C(=O)N[C@H](C(=O)N[C@@H](CO)C(=O)NCC(=O)N1C[C@H](O)C[C@H]1C(=O)N[C@@H](CO)C(=O)N[C@@H](CCCNC(=N)N)C(=O)N[C@@H](CCCCN)C(=O)N[C@@H](Cc1c[nH]cn1)C(=O)N[C@@H](CC(N)=O)C(=O)O)[C@@H](C)O` [IDL3, IDA-LIKE] (H-PVPTSG[Hyp]SRKHN-OH), on HSL1 ectodomain, the kon stood at 700000 M⁻¹ s⁻¹. On to `CC(C)[C@H](NC(=O)[C@@H]1CCCN1)C(=O)N1CCC[C@H]1C(=O)N[C@@H](C)C(=O)N[C@@H](CO)C(=O)N[C@@H](C)C(=O)N1C[C@H](O)C[C@H]1C(=O)N[C@@H](CO)C(=O)N[C@@H](CCCNC(=N)N)C(=O)N[C@@H](CCCCN)C(=O)N[C@@H](Cc1c[nH]cn1)C(=O)N[C@@H](CC(N)=O)C(=O)O` [IDL4, IDA-LIKE] (H-PVPASA[Hyp]SRKHN-OH), for which the kon on HSL1 ectodomain worked out at 460000 M⁻¹ s⁻¹.

B1: CLE9^V111P peptide (peptide, UniProt Q9FZE4 109-120, looked up)
peptide: RLPPSGPNPLHN
notes: CLE9 mature dodecapeptide with Val111 changed to Pro; also called replacement of the third Val by a Pro
As for B1, the Kd in test [1] was found to be 3000 nM. In other words, the single-digit micromolar range.

B2: CLE9^Hyp112PHyp115P peptide (peptide, UniProt Q9FZE4 109-120, looked up)
peptide: RLVPSGPNPLHN
modifications: Pro112 and Pro115 not hydroxylated
notes: CLE9 mature dodecapeptide with plain proline at 112 and 115 in place of hydroxyproline; also called CLE9 with Hyp in positions 4 and 7 replaced by Pro
For B2, the Kd in test [2] is 3 nM; in test [1], around 5 nM.
